This is an account of results in publication PMC12331092 (2025).

The target of assay [1] is T1, Rattus norvegicus wild-type β-arrestin2 (Rattus norvegicus, UniProt P29067 1-410). Kind of assay: ITC; site I (KD1). (In general: ITC needs no label: the signal is the heat of the interaction.)
Assay [2] has as its target T1, Rattus norvegicus wild-type β-arrestin2. The assay can be described thus: ITC; site II (KD2).

Square brackets hold non-standard residues; d marks the D form. Ends that are not written are not given here. pT = C[C@@H](OP(=O)(O)O)[C@H](N)C(=O)O; pS = N[C@@H](COP(=O)(O)O)C(=O)O

T1 sequence (P29067 whole entry): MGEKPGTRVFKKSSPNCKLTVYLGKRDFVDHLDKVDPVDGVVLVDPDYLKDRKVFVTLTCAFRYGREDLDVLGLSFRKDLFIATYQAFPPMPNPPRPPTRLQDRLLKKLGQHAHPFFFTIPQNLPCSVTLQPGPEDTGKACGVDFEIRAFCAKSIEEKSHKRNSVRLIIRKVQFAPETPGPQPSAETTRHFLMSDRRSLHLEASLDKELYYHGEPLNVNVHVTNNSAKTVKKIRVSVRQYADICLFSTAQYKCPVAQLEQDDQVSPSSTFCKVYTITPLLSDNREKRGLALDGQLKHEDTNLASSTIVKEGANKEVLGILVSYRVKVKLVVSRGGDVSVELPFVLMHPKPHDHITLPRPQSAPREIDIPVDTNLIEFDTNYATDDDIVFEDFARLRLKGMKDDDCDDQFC

B1: C7pp2, phosphopeptide from the carboxyl terminus of CXCR7 (residues 346-359) (peptide)
peptide: ASRV[pS]E[pT]EY[pS]ALEQ
For the molecule B1, the results for the Kd in assay [1] and in assay [2] were 79.9 nM and 3320 nM, respectively.

For orientation: Kd means the constant that tells how readily two partners part at equilibrium. A lower Kd goes with a tighter complex.
